B1: A8 (structured_DNA)
DNA: ATCCAGAGTGACGCAGCAGCTCGATCGTATAGCCGTGACGCAGCTTGAAATGGGATCGCGTCCACAGTTTTGGACACGGTGGCTTAGT
B2: A3 (structured_DNA)
DNA: ATCCAGAGTGACGCAGCAACAGAGGTGTAGAAGTACACGTGAACAAGCTTGAAATTGTCTCTGACAGAGGTGGACACGGTGGCTTAGT

Target: CD8a extracellular domain (Homo sapiens, UniProt P01732 22-182)
Experiment: BLI

Chain of CD8a extracellular domain (P01732 22-182): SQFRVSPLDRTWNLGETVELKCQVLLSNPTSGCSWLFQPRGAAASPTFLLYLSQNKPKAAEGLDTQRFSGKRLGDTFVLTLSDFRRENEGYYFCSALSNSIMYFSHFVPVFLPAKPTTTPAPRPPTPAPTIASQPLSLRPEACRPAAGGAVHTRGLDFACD

Binder	Kd [nM]
B1	5.59 ± 0.11
B2	14.7 ± 0.1

Reference: publication PMC6783348
